{"source": "patent US20250277199", "about": "“NOVEL CRISPR-CAS NUCLEASES FROM METAGENOMES” (Brain Biotech AG, published 2025)", "binders": {"B1": {"name": "malQ gRNA (BMC stem-loop + 24 nt spacer) ; malQ protospacer (ssRNA ; dsDNA)", "RNA": "GAUUUCUACUAUUGUAGAUGUGGCGGUACGUUGAUGCAUCGCG", "DNA 1": "GTGGCGGTACGTTGATGCATCGCG", "DNA 2": "CGCGATGCATCAACGTACCGCCAC"}}, "molecular_target": "T1, BMC03 (uncultured bacterium (metagenome))", "T1 chain": "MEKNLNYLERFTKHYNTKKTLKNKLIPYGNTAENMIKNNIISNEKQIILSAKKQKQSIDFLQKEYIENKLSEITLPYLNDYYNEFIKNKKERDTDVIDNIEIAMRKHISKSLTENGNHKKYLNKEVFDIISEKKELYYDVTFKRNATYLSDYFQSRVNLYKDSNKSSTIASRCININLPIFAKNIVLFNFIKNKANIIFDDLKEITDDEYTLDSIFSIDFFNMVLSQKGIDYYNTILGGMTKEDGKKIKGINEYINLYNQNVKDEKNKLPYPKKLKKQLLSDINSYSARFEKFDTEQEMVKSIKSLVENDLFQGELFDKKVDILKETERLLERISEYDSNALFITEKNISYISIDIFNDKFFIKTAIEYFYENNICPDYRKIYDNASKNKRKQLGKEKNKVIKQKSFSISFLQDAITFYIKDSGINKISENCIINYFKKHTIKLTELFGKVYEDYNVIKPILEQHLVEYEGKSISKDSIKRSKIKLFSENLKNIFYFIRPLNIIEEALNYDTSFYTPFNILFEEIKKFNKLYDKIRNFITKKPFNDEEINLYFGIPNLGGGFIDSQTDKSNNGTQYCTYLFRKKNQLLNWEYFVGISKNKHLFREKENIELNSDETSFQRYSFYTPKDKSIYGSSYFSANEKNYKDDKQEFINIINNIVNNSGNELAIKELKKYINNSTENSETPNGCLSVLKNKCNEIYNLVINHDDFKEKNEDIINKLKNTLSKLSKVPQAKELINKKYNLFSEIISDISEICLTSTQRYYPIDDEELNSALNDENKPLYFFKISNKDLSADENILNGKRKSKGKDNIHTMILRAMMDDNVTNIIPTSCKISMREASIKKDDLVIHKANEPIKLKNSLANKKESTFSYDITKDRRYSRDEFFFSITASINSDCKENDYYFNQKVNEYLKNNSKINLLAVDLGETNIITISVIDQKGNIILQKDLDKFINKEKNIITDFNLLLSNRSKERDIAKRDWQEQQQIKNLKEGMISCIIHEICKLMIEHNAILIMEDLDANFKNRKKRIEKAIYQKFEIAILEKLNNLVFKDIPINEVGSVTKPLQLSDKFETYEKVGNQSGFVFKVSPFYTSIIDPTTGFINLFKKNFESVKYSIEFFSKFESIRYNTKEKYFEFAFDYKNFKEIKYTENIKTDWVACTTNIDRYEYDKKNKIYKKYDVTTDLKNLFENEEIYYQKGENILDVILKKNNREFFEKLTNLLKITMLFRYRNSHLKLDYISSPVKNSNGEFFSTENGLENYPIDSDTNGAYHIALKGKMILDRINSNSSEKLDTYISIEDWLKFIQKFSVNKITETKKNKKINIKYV", "experiment": "cell_activity; PAM not stated; E. coli depletion, 30 C", "outline": "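E. coli carrying arabinose-induced (0.2%) BMC nuclease, grown at 30° C., made electrocompetent and electroporated with 50-100 ng plasmid carrying gRNA against malQ. Transformants plated on selective M9-glucose agar with kanamycin/ampicillin (± nourseothricin), and growth scored after 48 h at 30° C.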", "data": [{"binder": "B1", "values": [{"measurement": "activity", "value": "> 99.9", "unit": "% colony reduction"}]}]}
